This note sets out measurements from ChEMBL document CHEMBL2074331, “Kinetics of P-glycoprotein-mediated efflux of paclitaxel” (J Pharmacol Exp Ther, 2001).

The series concerns CC(=O)O[C@H]1C(=O)[C@@]2(C)[C@H]([C@H](OC(=O)c3ccccc3)[C@]3(O)C[C@H](OC(=O)[C@H](O)[C@@H](NC(=O)c4ccccc4)c4ccccc4)C(C)=C1C3(C)C)[C@]1(OC(C)=O)CO[C@@H]1C[C@@H]2O. Kind of series: TP_TRANSPORTER: uptake in MDR1-expressing MCF7 cells. Format: functional, cell-based.

As to “ATP-dependent translocase ABCB1 (Homo sapiens)”, the Km stood at 0.014 µM.

In general, Km refers to the substrate concentration at which the rate is half of its maximum.
